Consider two molecules from US8409859B2, “Differentiation of non-embryonic stem cells to cells having a pancreatic phenotype” (Regents of the University of Minnesota, priority 2005, dated 2013).

The subject of this experiment is rat MAPCs. Briefly: Cytokine mediated differentiation of rat MAPCs, Q-RT-PCR and cell survival. The class given is cell-based.

Protocol: For Q-RT-PCR reactions described herein, the primer sequences are presented in Tables 3-5 and the following protocols were used: RNA was extracted from the cells with the aid of the RNeasy Mini Kit (Qiagen; Valencia Calif.), followed by a DNase Treatment with DNA-Free™ (Ambion, Austin, Tex.). The RNA was reverse transcribed with TaqMan (Applied Biosystems, Foster City, Calif.; Step 1 (Incubation): 25° C., 10 min; Step 2 (RT): 48° C., 30 min; Step 3 (RT Inactivation): 95° C., 10 min).
Following reverse transcription, Quantitative Real Time PCR (Q-RT-PCR) was performed as follows: Step 1: 50° C., 2 min (Incubation); Step 2: 95° C., 10 min (Taq activation); Step 3: 95° C., 15 sec (Denaturation) followed by 60° C., 1 min (Extension) and repeat for 40 cycles; Step 4: 95° C., 15 sec (Dissociation); Step 5: 60° C., 20 sec (Melting curve); Step 6: 95° C., 15 sec.
In an initial series of studies, the effect of cell density (about 10^4-10^5 cells/cm^2), ECM component (fibronectin, collagen, matrigel) and different concentrations (10-100 ng/mL) of bFGF (10-100 ng/mL), FGF2 (10-100 ng/mL), Activin A (e.g., about 10 ng/mL to about 100 ng/mL), BMP4 (e.g., about 10 ng/mL to about 50 ng/mL), retinoic acid (about 10^−6M), EGF (e.g., about 10 to about 100 ng/mL), FGF10 (e.g., about 50 to about 150 ng/mL, including about 100 ng/mL), HGF (e.g., about 10 to about 100 ng/mL), GDF11 (e.g., about 50 to abut 150 ng/mL), cyclopamine (e.g., about 10 μM), anti-SHH antibody (Ab; e.g., about 10 μg/mL), nicotinamide (e.g., 5 μM to about 50 μM, including about 10 μM), exendin 4 (about 5 nM to about 50 nM, including about 10 nM), betacellulin (e.g., about 50 to abut 150 ng/mL) alone or in combinations of 2 or 3 and in different temporal sequences, on the induction of transcription factors, insulin, glucagon and somatostatin expression levels after 6, 12 and 18 days using Q-RT-PCR was determined.
Subsequent addition of factors believed to play a role in further proliferation and differentiation from pancreas-committed cells to mature endocrine pancreas, including EGF (e.g., about 50 ng/mL), HGF (e.g., about 50 ng/mL) and FGF10 (e.g., about 100 ng/mL), either alone or in combination was tested. […] Further optimization was obtained by adjusting the duration of the different steps along the differentiation course, as well addition of β-cellulin (50 ng/mL).

B1: GDF11: member of the BMP/TGFbeta superfamily (protein, UniProt O95390 299-407, looked up)
Growth/differentiation factor …: NLGLDCDEHSSESRCCRYPLTVDFEAFGWDWIIAPKRYKANYCSGQCEYMFMQKYPHTHLVQQANPRGSAGPCCTPTKMSPINMLYFNDKQQIIYGKIPGMVVDRCGCS
As to B1, the “Ins1 and Ins2 mRNA levels” value (GDF11 added) is listed as “a further increase”.

B2: FGF10: FGF produced by mesenchymal cells, used at about 100 ng/mL (protein, UniProt O15520 38-208, looked up)
Fibroblast growth factor 10: QALGQDMVSPEATNSSSSSFSSPSSAGRHVRSYNHLQGDVRWRKLFSFTKYFLKIEKNGKVSGTKKENCPYSILEITSVEIGVVAVKAINSNYYLAMNKKGKLYGSKEFNNDCKLKERIEENGYNTYASFNWQHNGRQMYVALNGKGAPRRGQKTRRKNTSAHFLPMVVHS
Consider B2, for which, under “activin-A, BMP4 and cyclopamine or anti-SHH Ab withdrawn after d6, cells then maintained with the factor”, the cell survival entry is “not”.
